B1: Isoform 2 of Bardet-Biedl syndrome 7 protein (Homo sapiens), Q8IWZ6-2 (parent)
chain: MDLILNRMDYLQVGVTSQKTMKLIPASRHRATQKVVIGDHDGVVMCFGMKKGEAAAVFKTLPGPKIARLELGGVINTPQEKIFIAAASEIRGFTKRGKQFLSFETNLTESIKAMHISGSDLFLSASYIYNHYCDCKDQHYYLSGDKINDVICLPVERLSRITPVLACQDRVLRVLQGSDVMYAVEVPGPPTVLALHNGNGGDSGEDLLFGTSDGKLALIQITTSKPVRKWEIQNEKKRGGILCIDSFDIVGDGVKDLLVGRDDGMVEVYSFDNANEPVLRFDQMLSESVTSIQGGCVGKDSYDEIVVSTYSGWVTGLTTEPIHKESGPGEELKINQEMQNKISSLRNELEHLQYKVLQERENYQQSSQSSKAKSAVPSFGINDKFTLNKDDASYSLILEVQTAIDNVLIQSDVPIDLLDVDKNSAVVSFSSCDSESNDNFLLATYRCQADTTRLELKIRSIEGQYGTLQAYVTPRIQPKTCQVRQYHIKPLSLHQRTHFIDHDRPMNTLTLTGQFSFAEVHSWVVFCLPEVPEKPPAGECVTFYFQNTFLDTQLESTYRKGEGVFKSDNISTISILKDVLSKEATKRKINLNISYEINEVSVKHTLKLIHPKLEYQLLLAKKVQLIDALKELQIHEGNTNFLIPEYHCILEEADHLQEEYKKQPAHLERLYG
partner: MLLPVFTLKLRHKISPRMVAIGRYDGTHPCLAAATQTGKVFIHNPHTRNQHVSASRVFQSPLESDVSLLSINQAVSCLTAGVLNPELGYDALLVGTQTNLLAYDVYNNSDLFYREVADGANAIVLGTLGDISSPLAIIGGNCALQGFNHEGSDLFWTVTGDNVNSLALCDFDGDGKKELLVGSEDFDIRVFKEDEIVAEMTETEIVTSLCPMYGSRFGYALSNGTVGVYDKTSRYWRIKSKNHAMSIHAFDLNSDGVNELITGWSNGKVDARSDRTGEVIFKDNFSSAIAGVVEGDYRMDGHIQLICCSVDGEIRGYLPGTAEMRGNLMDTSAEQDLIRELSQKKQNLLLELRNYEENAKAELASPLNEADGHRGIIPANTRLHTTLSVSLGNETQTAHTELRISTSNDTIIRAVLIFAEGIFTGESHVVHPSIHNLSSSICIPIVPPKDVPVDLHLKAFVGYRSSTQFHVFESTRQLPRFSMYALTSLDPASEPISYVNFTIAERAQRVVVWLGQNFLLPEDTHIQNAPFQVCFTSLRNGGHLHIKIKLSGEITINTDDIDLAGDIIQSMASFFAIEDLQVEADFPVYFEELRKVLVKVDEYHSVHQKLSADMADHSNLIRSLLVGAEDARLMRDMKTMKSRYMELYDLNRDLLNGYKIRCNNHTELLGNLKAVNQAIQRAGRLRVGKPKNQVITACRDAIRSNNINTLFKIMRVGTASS

Variants of: B1
Settings: with bbs2_human BBS2, Q9BXC9

Variant	effect of a mutation on the interaction
D578E	with no effect
D578A	with no effect
D578K	with no effect
S556A	with no effect
S556E	with no effect
S556K	with no effect
P535E	with no effect
P535A	with no effect
P535K	with no effect
N569K	with no effect
N569E	with no effect
N569A	with no effect
S574K	with no effect
S574A	with no effect
S574E	with no effect
D551A	with no effect
D551K	with no effect
D551E	with no effect
E530K	with no effect
E530A	with no effect
Q553K	with no effect
Q553A	with no effect
Q553E	with no effect

Variant	effect of a mutation on the interaction
L550K	with no effect
L550A	with no effect
L550E	with no effect
L576A	with no effect
L576E	with no effect
L576K	with no effect
F565K	with no effect
F565E	with no effect
F565A	with no effect
F545A	with no effect
F545E	with no effect
F545K	with no effect
I573E	with no effect
I573A	with no effect
I573K	with no effect
T552A	with no effect
T552K	with no effect
T552E	with no effect
V525E	with no effect
V525K	with no effect
V525A	with no effect
Q546K	with no effect
Q546E	with no effect

Variant	effect of a mutation on the interaction
Q546A	with no effect
F526A	with no effect
F526E	with no effect
F526K	with no effect
K582A	with no effect
K582E	with no effect
L528A	with no effect
L528E	with no effect
L528K	with no effect
T557E	with no effect
T557K	with no effect
T557A	with no effect
F543E	with no effect
F543A	with no effect
F543K	with no effect
P532K	with no effect
P532A	with no effect
P532E	with no effect
S522K	with no effect
E583A	with no effect
E583K	with no effect
A584E	with no effect
A584K	with no effect

Variant	effect of a mutation on the interaction
Y544A	with no effect
Y544E	with no effect
Y544K	with no effect
G538E	with no effect
G538A	with no effect
G538K	with no effect
L554K	with no effect
L554E	with no effect
L554A	with no effect
V524E	with no effect
V524A	with no effect
V524K	with no effect
V541A	with no effect
V541E	with no effect
V541K	with no effect
N547E	with no effect
N547K	with no effect
N547A	with no effect
Y558A	with no effect
Y558E	with no effect
Y558K	with no effect
W523K	with no effect
W523A	disrupting interaction strength

Variant	effect of a mutation on the interaction
W523E	with no effect
R559A	with no effect
R559E	with no effect
R559K	with no effect
K534E	with no effect
K534A	with no effect
L580K	with no effect
L580E	with no effect
L580A	with no effect
V531A	with no effect
V531K	with no effect
V531E	with no effect
T548E	with no effect
T548S	disrupting interaction strength
T548K	with no effect
T548A	with no effect
E555A	with no effect
E555K	with no effect
I570L	disrupting interaction strength
I570K	with no effect
I570E	with no effect
I570A	with no effect
T585K	with no effect

Variant	effect of a mutation on the interaction
T585A	with no effect
T585E	with no effect
G563E	with no effect
G563K	with no effect
G563R	disrupting interaction strength
G563A	with no effect
G561R	disrupting interaction strength
G561E	with no effect
G561A	with no effect
G561K	with no effect
G561S	disrupting interaction strength
E562A	with no effect
E562K	with no effect
P536K	with no effect
P536A	with no effect
P536E	with no effect
C540A	with no effect
C540K	with no effect
C540E	with no effect
E533A	with no effect
E533K	with no effect
S571E	with no effect
S571K	with no effect

Variant	effect of a mutation on the interaction
S571A	with no effect
V564K	with no effect
V564A	with no effect
V564E	with no effect
I575A	with no effect
I575E	with no effect
I575K	with no effect
C527A	with no effect
C527K	with no effect
C527E	with no effect
E539A	with no effect
E539K	with no effect
S581K	with no effect
S581A	with no effect
S581E	with no effect
F549K	with no effect
F549E	with no effect
F549A	with no effect
V579A	with no effect
V579E	with no effect
V579K	with no effect
K566A	with no effect
K566E	with no effect

Variant	effect of a mutation on the interaction
T542A	with no effect
T542E	with no effect
T542K	with no effect
S567K	with no effect
S567E	with no effect
S567A	with no effect
K577A	with no effect
K577E	with no effect
T572E	with no effect
T572A	with no effect
T572K	with no effect
A537E	with no effect
A537K	with no effect
P529C	disrupting interaction strength
P529E	with no effect
P529K	with no effect
P529S	disrupting interaction strength
P529A	with no effect
K560E	with no effect
K560A	with no effect
D568E	with no effect
D568K	with no effect
D568A	with no effect
